In article PMC6872149, “Protein:Protein interactions in the cytoplasmic membrane apparently influencing sugar transport and phosphorylation activities of the e. coli phosphotransferase system” (PLoS ONE, 2019):

Molecular target: MtlA (mannitol PTS Enzyme IIC-IIB-IIA) fused to the T25 domain (pKNT25-mtlA) (E. coli, UniProt P00550 1-637)
Assay: cell-based or functional assay

MtlA (mannitol PTS Enzyme IIC-IIB-IIA) fused to the T25 domain (pKNT25-mtlA), sequence (P00550 whole entry, the tested form may be a part): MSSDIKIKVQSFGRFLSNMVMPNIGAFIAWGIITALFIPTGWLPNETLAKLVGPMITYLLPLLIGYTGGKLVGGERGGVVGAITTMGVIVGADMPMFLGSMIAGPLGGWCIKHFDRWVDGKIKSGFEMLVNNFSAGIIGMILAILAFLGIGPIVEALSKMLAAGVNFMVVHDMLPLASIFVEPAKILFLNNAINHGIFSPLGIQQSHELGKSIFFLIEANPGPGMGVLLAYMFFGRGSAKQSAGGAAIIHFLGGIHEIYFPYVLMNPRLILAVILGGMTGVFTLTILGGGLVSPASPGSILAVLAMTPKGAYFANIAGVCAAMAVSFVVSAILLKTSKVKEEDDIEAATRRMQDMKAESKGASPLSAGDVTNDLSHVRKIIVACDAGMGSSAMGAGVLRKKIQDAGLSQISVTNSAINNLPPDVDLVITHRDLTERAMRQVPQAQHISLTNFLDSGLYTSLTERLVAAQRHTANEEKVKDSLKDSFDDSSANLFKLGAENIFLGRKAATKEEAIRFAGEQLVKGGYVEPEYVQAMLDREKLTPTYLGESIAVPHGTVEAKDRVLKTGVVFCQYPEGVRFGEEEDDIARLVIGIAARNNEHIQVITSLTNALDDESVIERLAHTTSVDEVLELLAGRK

B1: FruB (fructose PTS IIA-FPr) fused to the T18 domain (pUT18-fruB) (natural protein, E. coli, UniProt P69811 1-376, looked up)
chain: MFQLSVQDIHPGEKAGDKEEAIRQVAAALVQAGNVAEGYVNGMLAREQQTSTFLGNGIAIPHGTTDTRDQVLKTGVQVFQFPEGVTWGDGQVAYVAIGIAASSDEHLGLLRQLTHVLSDDSVAEQLKSATTAEELRALLMGEKQSEQLKLDNEMLTLDIVASDLLTLQALNAARLKEAGAVDATFVTKAINEQPLNLGQGIWLSDSAEGNLRSAIAVSRAANAFDVDGETAAMLVSVAMNDDQPIAVLKRLADLLLDNKADRLLKADAATLLALLTSDDAPTDDVLSAEFVVRNEHGLHARPGTMLVNTIKQFNSDITVTNLDGTGKPANGRSLMKVVALGVKKGHRLRFTAQGADAEQALKAIGDAIAAGLGEGA
PEP-dependent [14C]mannitol phosphorylation in vitro, activity ratio (Enzyme II plus FruB / Enzyme II alone); purified His-FruB 0.23 μM added to crude extract Cr.Ext-ΔfruBKA-pMAL (no FruA): 1.2 ratio
PEP-dependent [14C]mannitol phosphorylation in vitro, activity ratio (Enzyme II plus FruB / Enzyme II alone); purified His-FruB 0.23 μM added to membrane pellets MP-WT-pMAL (no fruA overexpression): 1.5 ratio
PEP-dependent [14C]mannitol phosphorylation in vitro, activity ratio (Enzyme II plus FruB / Enzyme II alone); purified His-FruB 0.23 μM added to membrane pellets MP-WT-pMAL-fruA (fruA overexpressed): 8.6 ratio
PEP-dependent [14C]mannitol phosphorylation in vitro, activity ratio (Enzyme II plus FruB / Enzyme II alone); purified His-FruB 0.23 μM added to membrane pellets MP-ΔfruBKA-pMAL (no FruA): 1.2 ratio
